The record followed here is publication PMC9482650, “Quantitative fragmentomics allow affinity mapping of interactomes” (Nature Communications, 2022).

For the test, the target named is T1, APBA1_2, Q02410.
T1 sequence (Q02410 742-832, limits assumed, looked up): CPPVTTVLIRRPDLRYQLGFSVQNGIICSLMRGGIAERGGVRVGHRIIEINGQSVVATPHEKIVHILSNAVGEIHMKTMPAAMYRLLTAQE
Kind of test: holdup assay. The arrangement: key: below the threshold = too weak to quantify, mostly under pKd 3.1 to 4. The settings on record: plain residues with an end cap or a label only (N-terminal biotin on a linker: ado-ado).

B1: MCC, P23508 (peptide)
chain: SRPHTNETSL
Usually pKd stands for the negative decadic logarithm of the Kd, by convention in mol/L. In turn, B1 came in with a negative-log Kd (pKd) of 3.59.

B2: WWTR1, Q9GZV5 (peptide)
chain: NKSEPFLTWL
The molecule B2 gave a pKd of 4.89.

B3: SIPA1, Q96FS4 (peptide)
chain: QLGSPTADLA
Take B3: the pKd result was “below the threshold”.

B4: HNRNPK, P61978;P61978-2 (peptide)
chain: VKQYADVEGF
B4: the pKd result is listed as “below the threshold”.

B5: GYPC, P04921 (peptide)
chain: GDSSRKEYFI
B5 returned a pKd of 3.73.

B6: CLDN8, P56748 (peptide)
chain: PSVYSRSQYV
Turning to B6, the pKd was 3.92.

B7: CAPN6, Q9Y6Q1 (peptide)
chain: VISSDDLTEL
With B7, the pKd is 3.79.

B8: PLCB2, Q00722 (peptide)
chain: AKADAQESRL
Take B8: the pKd result was “below the threshold”.

B9: FKBP4, Q02790 (peptide)
chain: GSQSQVETEA
For B9, the pKd entry was “below the threshold”.

B10: CRHR1, P34998 (peptide)
chain: FHSIKQSTAV
The molecule B10 yielded a negative-log Kd (pKd) of 4.15.

B11: ZNF599, Q96NL3 (peptide)
chain: THHRKIHTRV
The molecule B11 showed a pKd of 3.62.

B12: CDK18, Q07002 (peptide)
chain: RGKNRRQSIF
As to B12, the negative-log Kd (pKd) came out at 3.47.

B13: EXOC4, Q96A65 (peptide)
chain: ATKDKKITTV
Molecule B13 yielded a pKd of 3.82.
